Laboratory results published in US20230263900A1, “DENDRIMER-DRUG CONJUGATE” (priority 2020, published 2023).

Test: Pharmacokinetic studies of RHa-5 and RHa-15, single IV or SC administration, compared with RDV
Type: in vivo, animals (mammals)
Conditions: for C0, plasma GS-441524 / C0, plasma Remdesivir / F AUC(0-inf), plasma GS-441524 / F AUC(0-inf), plasma Remdesivir / F AUC(0-last), plasma GS-441524 / F AUC(0-last), plasma Remdesivir / Clast, plasma GS-441524 / Clast, plasma Remdesivir / t1/2last, plasma GS-441524 / t1/2last, plasma Remdesivir / tlast, plasma GS-441524 / tlast, plasma Remdesivir: 6.17 mg/kg Remdesivir equivalent; for F AUC(0-inf), plasma GS-441524 / F AUC(0-inf), plasma Remdesivir / F AUC(0-last), plasma GS-441524 / F AUC(0-last), plasma Remdesivir: relative to RDV IV
Protocol: Studies were undertaken to investigate the pharmacokinetic (PK) profile of two Remdesivir dendrimer conjugates following single intravenous (IV) or subcutaneous (SC) administration, and to compare them with that of Remdesivir (RDV).
The study consisted of two phases (PK Phase 1 and PK Phase 2) in a total of 6 animals (age 36-48 months) each part separated by a washout period: • PK Phase 1: Four animals (mammals) were studied. One male and one female were administered RHa-5 (BHALys [Lys]2[Lys]2[Lys]8[Lys]16[Lys]32[(α-NH-6N-TDA-Remdesivir)32(ε-NH-COPEG2000)32] 20% Remdesivir loading w/w) (test item) intravenously; and one male and one female were administered RHa-5 subcutaneously. Blood samples were taken over a period of 7 days. A minimum washout period of 14 days took place between the last blood sampling point of the PK Phase 1 and the start of PK Phase 2. • PK Phase 2: Six animals (mammals) were studied. One male and one female were administered RHa-15 (BHALys[Lys]2[Lys]4[Lys]8[Lys]16[Lys]32[(α-NH-3′ O-TDA-Remdesivir)32(ε-NH-COPEG2000)32] 18.63% Remdesivir loading w/w) (test item) intravenously; one male and one female were administered RHa-15 subcutaneously; and one male and one female were administered RDV (reference item). Blood samples were taken over a period of 7 days.
Formulation procedure: Test items RHa-5 and RHa-15 were reconstituted in Required volume of Water for injection (WFI), until a complete solution was obtained. The required volume of WFI was slowly added to RDV formulation (a lyophilate of 3.2% w/w RDV, 96.8% and sodium sulfobutylether-β-cyclodextrin adjusted to pH 3.5 with HCl) and shaken vigorously for 30 seconds. The solution was left for 20 minutes to ensure complete dissolution.
Administration: The clinical Remdesivir loading dose in humans is 200 mg. […] Allometric conversion of the dose from humans to small mammals results in an equivalent test dose of 6.17 mg/kg Remdesivir. Test item was administered as follows:
PK Phase 1: Two animal groups (A and B) of one male and one female each were administered test item RHa-5 at a Remdesivir equivalent dose of 6.17 mg/kg. Group A were administered the test item as a slow (30 seconds) intravenous bolus; and Group B were administered the test item over 30 seconds using the subcutaneous (SC) route into the back of the animal.
PK Phase 2: Three animal groups (C, D and E) of one male and one female each were included in this study phase. Groups C and D were administered test item RHa-15 at a Remdesivir equivalent dose of 6.17 mg/kg using the IV and SC routes, respectively. Group E were administered 6.17 mg/kg of RDV intravenously. IV administrations were done as a slow (30 seconds) bolus. SC administrations were done over 30 seconds.
Sampling schedule: Blood samples for PK analysis were collected as follows: • Day 1: pre-dose and at 15 min, 30 min, 1 h, 2 h, 4 h, 6 h, and 12 h after administration. • Days 2 to 8: 24, 48, 72, and 168 h after administration.
A blood volume of 2 mL was collected at each time point from the jugular vein with a 20-21G needle into a lithium heparin tube, and transferred into a tube containing 200 μL 0.15 M citric acid. Immediately following blood collection, the blood samples were mixed gently and kept on crushed ice until centrifugation at 1500 G for 10 min at 4° C. within 30 minutes of collection. Each plasma sample was stored frozen (˜80±10° C.).
The quantification range was 0.6 to 14400 ng/mL for Remdesivir and 0.6 to 14400 ng/mL for G441524.
Non-compartmental pharmacokinetic analysis was adopted to obtain the pharmacokinetic parameters from the blood concentration profiles.
The maximum concentration, Cmax, and time of maximum concentration, Tmax, were determined as the maximum measured concentration and its associated time. The area under the plasma concentration curve from 0 hours to the time of the last measurable concentration, AUC0-last, was calculated using linear trapezoidal estimation. […]

BHALys[Lys]2[Lys]4[Lys]8[Lys]16[Lys]32[(α-NH-6N-TDA-Remdesivir)32(ε-NH-COPEG2000)32] [RHa-5]
Release profile for plasma Remdesivir (IV and SC): excellent sustained release profile
C0, plasma GS-441524 (IV, female (4F)): 2 ng/mL
C0, plasma Remdesivir (IV, female (4F)): 4648 ng/mL
F AUC(0-inf), plasma GS-441524 (IV, female (4F)): 0.8 x-fold
F AUC(0-inf), plasma Remdesivir (IV, female (4F)): 605.7 x-fold
F AUC(0-last), plasma GS-441524 (IV, female (4F)): 0.8 x-fold
F AUC(0-last), plasma Remdesivir (IV, female (4F)): 667.2 x-fold
Clast, plasma GS-441524 (IV, female (4F; RDV 6F)): 3.7 ng/mL
Clast, plasma Remdesivir (IV, female (4F; RDV 6F)): 22.0 ng/mL
t1/2last, plasma GS-441524 (IV, female (4F; RDV 6F)): 39.6 h
t1/2last, plasma Remdesivir (IV, female (4F; RDV 6F)): 19.2 h
tlast, plasma GS-441524 (IV, female (4F; RDV 6F)): 168 h
tlast, plasma Remdesivir (IV, female (4F; RDV 6F)): 168 h
C0, plasma GS-441524 (IV, male (1M)): 2 ng/mL
C0, plasma Remdesivir (IV, male (1M)): 5701 ng/mL
F AUC(0-inf), plasma GS-441524 (IV, male (1M)): 0.9 x-fold
F AUC(0-inf), plasma Remdesivir (IV, male (1M)): 437.4 x-fold
F AUC(0-last), plasma GS-441524 (IV, male (1M)): 0.8 x-fold
F AUC(0-last), plasma Remdesivir (IV, male (1M)): 438.1 x-fold
Clast, plasma GS-441524 (IV, male (1M; RDV 3M)): 3.1 ng/mL
Clast, plasma Remdesivir (IV, male (1M; RDV 3M)): 98.7 ng/mL
t1/2last, plasma GS-441524 (IV, male (1M; RDV 3M)): 36.6 h
t1/2last, plasma Remdesivir (IV, male (1M; RDV 3M)): 29.5 h
tlast, plasma GS-441524 (IV, male (1M; RDV 3M)): 168 h
tlast, plasma Remdesivir (IV, male (1M; RDV 3M)): 168 h
C0, plasma GS-441524 (IV, mean of male and female): 2 ng/mL
C0, plasma Remdesivir (IV, mean of male and female): 5175 ng/mL
Clast, plasma GS-441524 (IV, mean of male and female): 3 ng/mL
Clast, plasma Remdesivir (IV, mean of male and female): 60 ng/mL
t1/2last, plasma GS-441524 (IV, mean of male and female): 38.1 h
t1/2last, plasma Remdesivir (IV, mean of male and female): 24.3 h
tlast, plasma GS-441524 (IV, mean of male and female): 168 h
tlast, plasma Remdesivir (IV, mean of male and female): 168 h
F AUC(0-inf), plasma GS-441524 (IV, mean): 0.8 x-fold
F AUC(0-inf), plasma Remdesivir (IV, mean): 521.6 x-fold
F AUC(0-last), plasma GS-441524 (IV, mean): 1 x-fold
F AUC(0-last), plasma Remdesivir (IV, mean): 553 x-fold
Clast, plasma GS-441524 (SC, female (5F)): 6.5 ng/mL
Clast, plasma Remdesivir (SC, female (5F)): 21.1 ng/mL
tlast, plasma GS-441524 (SC, female (5F)): 168 h
tlast, plasma Remdesivir (SC, female (5F)): 168 h
F AUC(0-last), plasma GS-441524 (SC, female (5F)): 0.7 x-fold
F AUC(0-last), plasma Remdesivir (SC, female (5F)): 113.8 x-fold
Clast, plasma GS-441524 (SC, male (2M)): 8.8 ng/mL
Clast, plasma Remdesivir (SC, male (2M)): 34.4 ng/mL
t1/2last, plasma GS-441524 (SC, male (2M)): 61.9 h
t1/2last, plasma Remdesivir (SC, male (2M)): 28.9 h
tlast, plasma GS-441524 (SC, male (2M)): 168 h
tlast, plasma Remdesivir (SC, male (2M)): 168 h
F AUC(0-inf), plasma GS-441524 (SC, male (2M)): 1.1 x-fold
F AUC(0-inf), plasma Remdesivir (SC, male (2M)): 146.8 x-fold
F AUC(0-last), plasma GS-441524 (SC, male (2M)): 1.0 x-fold
F AUC(0-last), plasma Remdesivir (SC, male (2M)): 146.9 x-fold
Clast, plasma GS-441524 (SC, mean): 7.7 ng/mL
Clast, plasma Remdesivir (SC, mean): 28 ng/mL
t1/2last, plasma GS-441524 (SC, mean): 61.9 h
t1/2last, plasma Remdesivir (SC, mean): 28.9 h
tlast, plasma GS-441524 (SC, mean): 168 h
tlast, plasma Remdesivir (SC, mean): 168 h
F AUC(0-inf), plasma GS-441524 (SC, mean): 1.1 x-fold
F AUC(0-inf), plasma Remdesivir (SC, mean): 147 x-fold
F AUC(0-last), plasma GS-441524 (SC, mean): 1 x-fold
F AUC(0-last), plasma Remdesivir (SC, mean): 130 x-fold
Plasma Remdesivir t1/2 and AUC compared to RDV delivered IV (delivered IV or SC): substantially extended plasma Remdesivir t1/2 and increased AUC
